Measured values as given in patent US7192728B2, “Screening assays for agents that alter inhibitor of apoptosis (IAP) protein regulation of caspase activity” (The Burnham Institute, priority 1997, dated 2007).

Tests used:
293 cells = assay: Fas-induced apoptosis in transfected 293 cells; assay type: cell-based, human; details: co-transfection of Fas and myc-XIAP; 36 hrs
Method: For determination of apoptotic activity in FIG. 2B, 293 cells in 60 mm dishes were transiently transfected with 6 μg of pcDNA-myc-tag control or pcDNA-myc-XIAP plasmids, and either 2 ug of pCMV5 or pCMV5-Fas plasmid DNA. All transfections included 0.5 ug of pEGFP as a marker and were normalized for total DNA content. The percentage of GFP positive cells with apoptotic morphology and nuclear changes consistent with apoptosis were enumerated by DAPI-staining (mean+SD; n=3) at 36 hrs. Alternatively, cell lysates were prepared, and immunoprecipitates were collected using anti-myc monoclonal antibody with protein-G-Sepharose, followed by SDS-PAGE immunoblot assay using anti-caspase-3 antiserum (Krajewska et al., supra 1997) to reveal the XIAP-associated p24 isoform of partially processed caspase-3. Lanes correspond to cells transfected with: (1) control plasmid; (2) myc-XIAP; (3) Fas plus myc-control; and (4) Fas plus myc-XIAP.
Apoptotic assays were performed as follows. 293 cells were transfected as described above, except that 0.5 μg pEGFP plasmid DNA was included.

caspase-6 = biological target: T1, caspase-6 (Homo sapiens, UniProt P55212); assay: Inhibition of purified recombinant caspase-6, DEVD substrate hydrolysis; assay type: biochemical
T1 construct: Purified active caspase concentrations ranged from 0.1 nM to 10 nM; His6; made in house; host or cells: E. coli BL21(DE3)pLysS
T1 sequence (P55212 24-179 limits assumed): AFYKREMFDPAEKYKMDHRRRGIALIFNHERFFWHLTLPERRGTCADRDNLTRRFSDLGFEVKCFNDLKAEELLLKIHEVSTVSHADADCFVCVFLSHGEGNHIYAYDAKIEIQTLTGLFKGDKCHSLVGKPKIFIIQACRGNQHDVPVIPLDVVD
T1 sequence (P55212 194-293 limits assumed): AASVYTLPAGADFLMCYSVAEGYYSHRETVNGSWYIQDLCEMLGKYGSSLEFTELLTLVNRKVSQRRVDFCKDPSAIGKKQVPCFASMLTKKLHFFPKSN
Method: (§1) Purified recombinant caspase-1, caspase-3, caspase-6, caspase-7 or caspase-8 were incubated with DEVD-pNA, either alone or with a 10-fold to 50-fold molar excess of GST-XIAP ([…]) and substrate hydrolysis was measured. Purified active caspase concentrations ranged from 0.1 nM to 10 nM. XIAP concentration ranged from 0.1 nM to 500 nM. Assays were performed in caspase buffer (50 mM Tris, pH 7.4, 100 mM NaCl, 10% sucrose, 5–10 mM DTT, 1 mM EDTA and 0.1% CHAPS).
(§2) Equilibria were determined from progress curves when substrate hydrolysis reached a steady-state; slopes were calculated by curve fit analysis using the cricket graph program. Experiments were performed using purified recombinant caspase-3, caspase-6, or caspase-7. DEVD-AFC hydrolysis was measured using 0.1 nM caspase and a range of concentrations (0.2 to 12 μM) of recombinant XIAP (rXIAP). […] Average ratio velocities (vi/vo, where “vi” indicates presence of GST-XIAP and “vo” indicates absence of GST-XIAP) were determined.

[1] = test system: DEVD-pNA hydrolysis activity in Jurkat T cell cytosolic extracts; assay: Cytochrome c/dATP-induced caspase activation (DEVD-pNA hydrolysis) in Jurkat T cell cytosolic extracts; assay type: biochemical
Method: Cells were washed with ice cold buffer A (20 mM Hepes (pH 7.5), 10 mM KCl, 1.5 mM MgCl2, 1 mM EDTA, 1 mM DTT and 0.1 mM PMSF) and suspended in 1 vol buffer A, then incubated on ice for 20 min. 293 cells were disrupted by passage 15× through a 26 gauge needle and Jurkat T cells were disrupted by dounce homogenization in 2 ml using 15 strokes with a pestle B. Cell extracts (10–15 mg total protein/ml) were clarified by centrifugation at 16,000×g for 30 min, then the NaCl concentration was increased by 50 mM. Cytosolic fractions were used immediately or stored frozen at −80° C.
Caspase activity was assayed by release of either 7-amino-4-trifluoromethyl-coumarin (AFC) or p-nitroanilide (pNA) from benzylyoxycarbonyl-DEVD (SEQ ID NO: 2) or benzylyoxycarbonyl-YVAD (SEQ ID NO: 3) synthetic peptides using a Molecular Devices Spectromax 340 for AFC labeled peptides or Perkin/Elmer LS50B for pNA labeled peptides (see Example II; see, also, Zhou et al., supra, 1997). Cytosolic extracts from 293 cells or Jurkat T cells were used directly (negative control) or were treated with 1 μM cytochrome c and 1 mM dATP or with cytochrome c, dATP and 0.2 μM GST-XIAP. Additional control reactions were performed by substituting 2 μM GST-Bcl-2, GST-Bax, GST-NM23 or GST-CD40 cytosolic domain, or 5 μM His6-S5a protein for GST-XIAP. DEVD-pNA hydrolysis was measured at various times and multiple experiments were performed using several different GST-XIAP preparations.

caspase-3 = biological target: T2, caspase-3 (Homo sapiens, UniProt P42574); assay: Inhibition of purified recombinant caspase-3, DEVD substrate hydrolysis and progress curves; assay type: biochemical
T2 construct: to produce the 17–20 kDa mature, fully processed large subunit of the active caspase-3 enzyme; a smaller, fully processed, subunit of about 11 kDa; His6; made in house; host or cells: E. coli BL21(DE3)pLysS
T2 sequence (P42574 29-175 limits assumed): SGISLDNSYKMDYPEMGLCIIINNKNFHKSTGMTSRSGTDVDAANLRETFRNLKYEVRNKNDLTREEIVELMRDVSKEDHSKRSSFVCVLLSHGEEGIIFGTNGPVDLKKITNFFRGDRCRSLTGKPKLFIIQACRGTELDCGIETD
T2 sequence (P42574 176-277 limits assumed): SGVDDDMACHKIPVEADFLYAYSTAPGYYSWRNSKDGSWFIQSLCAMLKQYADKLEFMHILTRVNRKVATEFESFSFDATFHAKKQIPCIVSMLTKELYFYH
Method: as §1, §2
Caspase activity was determined essentially as described in Example II, using the benzylyoxycarbonyl-DEVD-AFC (SEQ ID NO: 2) substrate and was assayed at 37° C. using the Perkin-Elmer LS50B fluorometric plate reader in the kinetic mode with excitation and emission wavelengths of 400 nm and 505 nm, respectively. […] Reactions were performed in caspase buffer (50 mM Hepes, 100 mM NaCl, 1 mM EDTA, 0.1% CHAPS, 10% sucrose, 5 mM DTT). The inhibition constant, Ki, was calculated as described (Zhou et al., supra, 1997). Immunoblot analysis was performed as described in Example I.B.3.

caspase-8 = biological target: T3, caspase-8 (Homo sapiens, UniProt Q14790); assay: Inhibition of purified recombinant caspase-8, DEVD substrate hydrolysis; assay type: biochemical
T3 construct: a cDNA encoding the catalytic subunit of caspase-8 (Ser 217 to the C-terminus); His6; made in house; host or cells: E. coli BL21(DE3)pLysS
Method: as §1, §2

[2] = DEVD-AFC hydrolysis with/without GST-XIAP

T3 sequence (Q14790 217-374 limits assumed): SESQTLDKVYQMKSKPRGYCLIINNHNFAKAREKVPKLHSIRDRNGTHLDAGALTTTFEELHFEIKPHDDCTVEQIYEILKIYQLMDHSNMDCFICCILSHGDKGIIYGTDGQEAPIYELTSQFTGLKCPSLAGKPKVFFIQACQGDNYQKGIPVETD
T3 sequence (Q14790 385-479 limits assumed): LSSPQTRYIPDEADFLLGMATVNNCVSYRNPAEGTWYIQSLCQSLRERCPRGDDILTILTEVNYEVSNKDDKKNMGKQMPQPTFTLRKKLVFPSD

- interference with substrate cleavage by caspase-6 (caspase-6; 50-fold molar excess): did not interfere
- average ratio velocity (vi/vo), caspase-6 (caspase-6; [2]): about 1.0
- inhibition of processing of DEVD-pNA by caspase-3 (caspase-3; 10-fold molar excess): greater than 95%
- average ratio velocity (vi/vo), caspase-3 (caspase-3; [2]): less than 0.2
- Ki (caspase-3; progress curve analysis, DEVD-AFC 0.1 mM, 0.1 nM caspase, read-out: inhibition constant (Ki) for caspase-3): ~0.7 nM
- interference with substrate cleavage by caspase-8 (caspase-8; 50-fold molar excess): did not interfere
- average ratio velocity (vi/vo), caspase-8 (caspase-8; [2]): about 1.0
Substance: XIAP: X chromosome linked inhibitor of apoptosis protein (Genbank U32974), used mostly as recombinant GST fusion or expressed from plasmid
- Fas-induced apoptosis (in words) (293 cells): markedly suppressed
- DEVD-pNA hydrolysis, ΔA405 after 15 min ([1]; untreated ≈0.02): ≈ 0.025
- DEVD-pNA hydrolysis, ΔA405 after 20 min ([1]; untreated ≈0.025): ≈ 0.03
